The source of these data is paper PMC13385800 (2026).

The labels stand for the following.
B1: TBLR1-LgBiT wild type [not stated] / SETD5-SmBiT [not stated] (parent complex)
chain 1: MSISSDEVNFLVYRYLQESGFSHSAFTFGIESHISQSNINGALVPPAALISIIQKGLQYVEAEVSINEDGTLFDGRPIESLSLIDAVMPDVVQTRQQAYRDKLAQQQAAAAAAAAAAASQQGSAKNGENTANGEENGAHTIANNHTDMMEVDGDVEIPPNKAVVLRGHESEVFICAWNPVSDLLASGSGDSTARIWNLSENSTSGSTQLVLRHCIREGGQDVPSNKDVTSLDWNSEGTLLATGSYDGFARIWTKDGNLASTLGQHKGPIFALKWNKKGNFILSAGVDKTTIIWDAHTGEAKQQFPFHSAPALDVDWQSNNTFASCSTDMCIHVCKLGQDRPIKTFQGHTNEVNAIKWDPTGNLLASCSDDMTLKIWSMKQDNCVHDLQAHNKEIYTIKWSPTGPGTNNPNANLMLASASFDSTVRLWDVDRGICIHTLTKHQEPVYSVAFSPDGRYLASGSFDKCVHIWNTQTGALVHSYRGTGGIFEVCWNAAGDKVGASASDGSVCVLDLRK
chain 2: MSIAIPLGVTTSDTSYSDMAAGSDPESVEASPAVNEKSVYSTHNYGTTQRHGCRGLPYATIIPRSDLNGLPSPVEERCGDSPNSEGETVPTWCPCGLSQDGFLLNCDKCRGMSRGKVIRLHRRKQDNISGGDSSATESWDEELSPSTVLYTATQHTPTSITLTVRRTKPKKRKKSPEKGRAAPKTKKIKNSPSEAQNLDENTTEGWENRIRLWTDQYEEAFTNQYSADVQNALEQHLHSSKEFVGKPTILDTINKTELACNNTVIGSQMQLQLGRVTRVQKHRKILRAARDLALDTLIIEYRGKVMLRQQFEVNGHFFKKPYPFVLFYSKFNGVEMCVDARTFGNDARFIRRSCTPNAEVRHMIADGMIHLCIYAVSAITKDAEVTIAFDYEYSNCNYKVDCACHKGNRNCPIQKRNPNATELPLLPPPPSLPTIGAETRRRKARRKELEMEQQNEASEENNDQQSQEVPEKVTVSSDHEEVDNPEEKPEEEKEEVIDDQENLAHSRRTREDRKVEAIMHAFENLEKRKKRRDQPLEQSNSDVEITTTTSETPVGEETKTEAPESEVSNSVSNVTIPSTPQSVGVNTRRSSQAGDIAAEKLVPKPPPAKPSRPRPKSRISRYRTSSAQRLKRQKQANAQQAELSQAALEEGGSNSLVTPTEAGSLDSSGENRPLTGSDPTVVSITGSHVNRAASKYPKTKKYLVTEWLNDKAEKQECPVECPLRITTDPTVLATTLNMLPGLIHSPLICTTPKHYIRFGSPFIPERRRRPLLPDGTFSSCKKRWIKQALEEGMTQTSSVPQETRTQHLYQSNENSSSSSICKDNADLLSPLKKWKSRYLMEQNVTKLLRPLSPVTPPPPNSGSKSPQLATPGSSHPGEEECRNGYSLMFSPVTSLTTASRCNTPLQFELCHRKDLDLAKVGYLDSNTNSCADRPSLLNSGHSDLAPHPSLGPTSETGFPSRSGDGHQTLVRNSDQAFRTEFNLMYAYSPLNAMPRADGLYRGSPLVGDRKPLHLDGGYCSPAEGFSSRYEHGLMKDLSRGSLSPGGERACEGVPSAPQNPPQRKKVSLLEYRKRKQEAKENSAGGGGDSAQSKSKSAGAGQGSSNSVSDTGAHGVQGSSARTPSSPHKKFSPSHSSMSHLEAVSPSDSRGTSSSHCRPQENISSRWMVPTSVERLREGGSIPKVLRSSVRVAQKGEPSPTWESNITEKDSDPADGEGPETLSSALSKGATVYSPSRYSYQLLQCDSPRTESQSLLQQSSSPFRGHPTQSPGYSYRTTALRPGNPPSHGSSESSLSSTSYSSPAHPVSTDSLAPFTGTPGYFSSQPHSGNSTGSNLPRRSCPSSAASPTLQGPSDSPTSDSVSQSSTGTLSSTSFPQNSRSSLPSDLRTISLPSAGQSAVYQASRVSAVSNSQHYPHRGSGGVHQYRLQPLQGSGVKTQTGLS

One test covers variants of B1. The test can be described thus: NanoLuc complementation assay; n = 6–7 independent transfections per TBLR1 mutant; read off a plot.
With chain 1 MSISSDEVNFLVYRYLQESGFSHSAFTFGIESHISQSNINGALVPPAALISIIQKGLQYVEAEVSINEDGTLFDGRPIESLSLIDAVMPDVVQTRQQAYRDKLAQQQAAAAAAAAAAASQQGSAKNGENTANGEENGAHTIANNHTDMMEVDGDVEIPPNKAVVLRGHESEVFICAWNPVSDLLASGSGDSTARIWNLSENSTSGSTQLVLRHCIREGGQDVPSNKDVTSLDWNSEGTLLATGSYDGFARIWTKDGNLASTLGQHKGPIFALKWNKKGNFILSAGVDKTTIIWDAHTGEAKQQFPFHSAPALDVDWQSNNTFASCSTDMCIHVCKLGQDRPIKTFQGHTNEVNAIKWDPTGNLLASCSDNMTLKIWSMKQDNCVHDLQAHNKEIYTIKWSPTGPGTNNPNANLMLASASFDSTVRLWDVDRGICIHTLTKHQEPVYSVAFSPDGRYLASGSFDKCVHIWNTQTGALVHSYRGTGGIFEVCWNAAGDKVGASASDGSVCVLDLRK [chain 1 D370N], the ratio to parent was roughly 0.05.
chain 1 MSISSDEVNFLVYRYLQESGFSHSAFTFGIESHISQSNINGALVPPAALISIIQKGLQYVEAEVSINEDGTLFDGRPIESLSLIDAVMPDVVQTRQQAYRDKLAQQQAAAAAAAAAAASQQGSAKNGENTANGEENGAHTIANNHTDMMEVDGDVEIPPNKAVVLRGHESEVFICAWNPVSDLLASGSGDSTARIWNLSENSTSGSTQLVLRHCIREGGQDVPSNKDVTSLDWNSEGTLLATGSYDGFARIWTKDGNLASTLGQHKGPIFALKWNKKGNFILSAGVDKTTIIWDAHTGEAKQQFPFHSAPALDVDWQSNNTFASCSTDMCIHVCKLGQDRPIKTFQGHTNEVNAIKWDPTGNLLASCSDDMTLKIWSMKQDNCVHDLQAHNKEIYTIKWSPTGPGTNNPNANLMLASASFDSTVRLWDVDRGICIHTLTKHQERVYSVAFSPDGRYLASGSFDKCVHIWNTQTGALVHSYRGTGGIFEVCWNAAGDKVGASASDGSVCVLDLRK [chain 1 P444R]: the ratio to parent is roughly 0.7.
Same read-out and setting: next, chain 1 MSISSDEVNFLVYRYLQESGFSHSAFTFGIESHISQSNINGALVPPAALISIIQKGLQYVEAEVSINEDGTLFDGRPIESLSLIDAVMPDVVQTRQQAYRDKLAQQQAAAAAAAAAAASQQGSAKNGENTANGEENGAHTIANNHTDMMEVDGDVEIPPNKAVVLRGHESEVFICAWNPVSDLLASGSGDSTARIWNLSENSTSGSTQLVLRHCIREGGQDVPSNKDVTSLDWNSEGTLLATGSYDGFARIWTKDGNLASTLGQHKGPILALKWNKKGNFILSAGVDKTTIIWDAHTGEAKQQFPFHSAPALDVDWQSNNTFASCSTDMCIHVCKLGQDRPIKTFQGHTNEVNAIKWDPTGNLLASCSDDMTLKIWSMKQDNCVHDLQAHNKEIYTIKWSPTGPGTNNPNANLMLASASFDSTVRLWDVDRGICIHTLTKHQEPVYSVAFSPDGRYLASGSFDKCVHIWNTQTGALVHSYRGTGGIFEVCWNAAGDKVGASASDGSVCVLDLRK [chain 1 F270L]: roughly 1.8; chain 1 MSISSDEVNFLVYRYLQESGFSHSAFTFGIESHISQSNINGALVPPAALISIIQKGLQYVEAEVSINEDGTLFDGRPIESLSLIDAVMPDVVQTRQQAYRDKLAQQQAAAAAAAAAAASQQGSAKNGENTANGEENGAHTIANNHTDMMEVDGDVEIPPNKAVVLRGHESEVFICAWNPVSDLLASGSGDSTARIWNLSENSTSGSTQLVLRHCIREGGQDVPSNKDVTSLDWNSEGTLLATGSYDGFARIWTKDGNLASTLGQHKGPIFALKWNKKGNFILSAGVDKTTIIWDAHTGEAKQQFPFHSAPALDVDWQSNNTFASCSTHMCIHVCKLGQDRPIKTFQGHTNEVNAIKWDPTGNLLASCSDDMTLKIWSMKQDNCVHDLQAHNKEIYTIKWSPTGPGTNNPNANLMLASASFDSTVRLWDVDRGICIHTLTKHQEPVYSVAFSPDGRYLASGSFDKCVHIWNTQTGALVHSYRGTGGIFEVCWNAAGDKVGASASDGSVCVLDLRK [chain 1 D328H]: roughly 0.55.

A further test covers variants of B1. The test can be described thus: co-immunoprecipitation, mass spectrometry; TBLR1-null Flp-In T-REx 293 cells; n = 3 independent transfections; read off a plot.
On to chain 1 MSISSDEVNFLVYRYLQESGFSHSAFTFGIESHISQSNINGALVPPAALISIIQKGLQYVEAEVSINEDGTLFDGRPIESLSLIDAVMPDVVQTRQQAYRDKLAQQQAAAAAAAAAAASQQGSAKNGENTANGEENGAHTIANNHTDMMEVDGDVEIPPNKAVVLRGHESEVFICAWNPVSDLLASGSGDSTARIWNLSENSTSGSTQLVLRHCIREGGQDVPSNKDVTSLDWNSEGTLLATGSYDGFARIWTKDGNLASTLGQHKGPIFALKWNKKGNFILSAGVDKTTIIWDAHTGEAKQQFPFHSAPALDVDWQSNNTFASCSTDMCIHVCKLGQDRPIKTFQGHTNEVNAIKWDPTGNLLASCSDNMTLKIWSMKQDNCVHDLQAHNKEIYTIKWSPTGPGTNNPNANLMLASASFDSTVRLWDVDRGICIHTLTKHQEPVYSVAFSPDGRYLASGSFDKCVHIWNTQTGALVHSYRGTGGIFEVCWNAAGDKVGASASDGSVCVLDLRK [chain 1 D370N], for which the screen value is roughly 6.9 log2.
